# According to patent US20080166806A1, “Attenuated Effector Ligand” (priority 2007, published 2008):
# B1: FasL (protein, UniProt P48023 130-281, looked up)
# Tumor necrosis factor ligand …: QIGHPSPPPEKKELRKVAHLTGKSNSRSMPLEWEDTYGIVLLSGVKYKKGGLVINETGLYFVYSKVYFRGQSCNNLPLSHKVYMRNSKYPQDLVMMEGKMMSYCTTGQMWARSSYLGAVFNLTSADHLYVNVSELSLVNFEESQTFFGLYKL
# notes: wild-type FasL ligand used as comparator
# B2: FasL (P206R) (protein, UniProt P48023 130-281, looked up, variant P206R)
# Tumor necrosis factor ligand …: QIGHPSPPPEKKELRKVAHLTGKSNSRSMPLEWEDTYGIVLLSGVKYKKGGLVINETGLYFVYSKVYFRGQSCNNLRLSHKVYMRNSKYPQDLVMMEGKMMSYCTTGQMWARSSYLGAVFNLTSADHLYVNVSELSLVNFEESQTFFGLYKL
# B3: conjugate: mutated FasL (P206R) conjugated to mouse monoclonal anti-CD20 antibody with SMCC (conjugate, UniProt P48023 130-281, looked up, variant P206R)
# Tumor necrosis factor ligand …: QIGHPSPPPEKKELRKVAHLTGKSNSRSMPLEWEDTYGIVLLSGVKYKKGGLVINETGLYFVYSKVYFRGQSCNNLRLSHKVYMRNSKYPQDLVMMEGKMMSYCTTGQMWARSSYLGAVFNLTSADHLYVNVSELSLVNFEESQTFFGLYKL
# modifications: conjugated via SMCC to mouse anti-CD20 antibody
# Tested on: Burkitt lymphoma cells
# Test: Dose response of FasL ligands on Burkitt lymphoma cells
# Format: cell-based
# Settings: dose response over 1 μM to 1 nM, 96 well plate
# Procedure: Dose response over a range of 1 μM to 1 nM is determined for each of the ligands.
row,Molecule,rank order of effectiveness
1,B1,"rank order of effectiveness is wild-type, conjugate and mutated FasL"
2,B2,"rank order of effectiveness is wild-type, conjugate and mutated FasL"
3,B3,"rank order of effectiveness is wild-type, conjugate and mutated FasL"
